For one test, the target named is T1, NBD-ZPI–PZ interactions (Homo sapiens, UniProt Q9UK55, C190A/C285S/K260C).
T1 construct: made in house; host or cells: Escherichia coli
T1 sequence (Q9UK55 22-444 C190A/K260C/C285S): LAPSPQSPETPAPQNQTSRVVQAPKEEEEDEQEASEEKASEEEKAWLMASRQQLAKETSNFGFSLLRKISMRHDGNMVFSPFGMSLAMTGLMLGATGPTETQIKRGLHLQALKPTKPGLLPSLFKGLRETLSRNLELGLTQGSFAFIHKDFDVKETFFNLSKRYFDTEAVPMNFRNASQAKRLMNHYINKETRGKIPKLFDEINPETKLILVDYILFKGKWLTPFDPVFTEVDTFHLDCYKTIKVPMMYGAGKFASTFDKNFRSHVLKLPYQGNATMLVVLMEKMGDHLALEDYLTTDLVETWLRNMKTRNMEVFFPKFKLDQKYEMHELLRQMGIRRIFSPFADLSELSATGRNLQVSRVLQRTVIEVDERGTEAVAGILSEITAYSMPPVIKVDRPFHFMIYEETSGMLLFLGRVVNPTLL
The test is described as follows: Titrations of NBD-ZPI with PZ in absence and presence of fixed levels of heparin. Type of test: binding. Conditions: no heparin; 50 nM NBD-ZPI, 0.2 M NaCl buffer; read-out: ZPI–PZ KD,PZapp. How it is done:
The effect of heparin on PZ binding to ZPI was measured by titrations of 50 nM NBD-ZPI with PZ in the absence and presence of different fixed levels of heparins of various lengths in the higher ionic strength buffer used for emission spectra. Titrations were monitored from the enhancement of NBD-ZPI fluorescence that signals PZ binding. These titrations were fit by the quadratic binding equation, ΔFobs/F0=ΔFmax/F0×[ZPI]0+[PZ]0+KD,PZapp−([ZPI]0+[PZ]0+KD,PZapp)^2−4×[ZPI]0×[PZ]0/2×[ZPI]0 where ΔFobs/Fo and ΔFmax/Fo are the observed and maximal fluorescence changes after addition of PZ expressed relative to the initial free NBD-ZPI fluorescence, respectively, and KD,PZapp = KD,PZ × (1 + [H]o/KD,H) is the apparent dissociation constant for the ZPI–PZ interaction in the absence or presence of heparin. The fitted parameters were KD,PZapp and ΔFmax/Fo.

The target of the next test is T2, K239C-NBD-ZPI (Homo sapiens, UniProt Q9UK55, C190A/C285S/K260C).
T2 construct: made in house; host or cells: Escherichia coli
T2 sequence (Q9UK55 22-444 C190A/K260C/C285S): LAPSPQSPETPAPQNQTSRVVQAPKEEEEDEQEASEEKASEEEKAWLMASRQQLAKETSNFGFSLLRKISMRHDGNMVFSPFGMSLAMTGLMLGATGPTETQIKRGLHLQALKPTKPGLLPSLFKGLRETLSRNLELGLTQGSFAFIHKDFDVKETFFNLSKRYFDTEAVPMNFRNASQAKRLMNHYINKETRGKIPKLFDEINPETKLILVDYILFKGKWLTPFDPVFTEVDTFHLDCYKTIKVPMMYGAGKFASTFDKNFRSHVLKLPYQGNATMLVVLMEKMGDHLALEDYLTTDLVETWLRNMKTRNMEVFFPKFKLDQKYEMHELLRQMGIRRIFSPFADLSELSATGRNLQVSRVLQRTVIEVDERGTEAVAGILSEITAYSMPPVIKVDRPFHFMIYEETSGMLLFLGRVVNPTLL
Nature of the test: Fluorescence emission spectra of K239C-NBD-ZPI with PZ and heparin. Type of test: binding. Conditions: saturating PZ added to NBD-labeled ZPI. How it is done:
Fluorescence emission spectra of NBD-ZPI (50–100 nM) were measured in the absence or the presence of PZ and heparin in 20 mM Tris buffer (pH 7.4), 0.2 M NaCl, 0.1% PEG 8000, 1 mg/ml bovine serum albumin (BSA), and 2.5 mM CaCl2 with an SLM 8000 spectrofluorometer with excitation at 480 nm over the emission range of 500 to 600 nm. Intrinsic protein fluorescence of WT and mutant ZPIs (200 nM to 1 μM) was measured in the same buffer without BSA, with excitation at 280 nm over the emission range of 300 to 400 nm. Emission was monitored in 5-nm steps with 5 to 10 s of integrations per step. Spectra were obtained in triplicate and averaged. Buffer, buffer plus PZ, or buffer plus heparin background spectra were subtracted, and dilution corrections were made for added PZ or heparin (<10%).

The target of test [1] is T3, FXa (Homo sapiens, UniProt P00742).
T3 construct: purchased Enzyme Research Laboratories
T3 sequence (P00742 235-488 limits assumed): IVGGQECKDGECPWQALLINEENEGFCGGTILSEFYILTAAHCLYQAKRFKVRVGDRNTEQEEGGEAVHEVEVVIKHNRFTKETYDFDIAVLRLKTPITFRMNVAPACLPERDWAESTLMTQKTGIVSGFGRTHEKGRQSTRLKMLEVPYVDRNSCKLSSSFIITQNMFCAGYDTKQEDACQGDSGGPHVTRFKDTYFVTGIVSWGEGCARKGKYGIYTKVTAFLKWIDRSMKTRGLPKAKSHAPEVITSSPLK
T3 sequence (P00742 41-179 limits assumed): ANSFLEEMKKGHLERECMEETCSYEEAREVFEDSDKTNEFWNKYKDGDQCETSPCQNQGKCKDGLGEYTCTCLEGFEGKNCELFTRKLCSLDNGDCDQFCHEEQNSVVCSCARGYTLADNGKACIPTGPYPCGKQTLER
Nature of the test: Unaccelerated ZPI–FXa reactions: kinetics and stoichiometry of inhibition. Type of test: biochemical. The following applies: for ka,app: absence of PZ, 2.5 mM CaCl2, pH 7.4, 25 °C. The essentials: (§1)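 Human FXa (∼0.5 nM) with ZPI 10–900 nM, ± optimal H50, pseudo-first-order; PZ-accelerated runs used PZ equimolar with ZPI, 25 μM lipid, 5 mM CaCl2, ZPI 10–40 nM. Residual activity via substrate-quench initial rates; ka,app from kobs vs [ZPI] slope, kd fixed at 10^−4 s^−1. SI from residual activity vs inhibitor:protease ratio (FXa 50–100 nM, 25 °C), dissociation-corrected.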

In test [2] the target is T3, FXa. Nature of the test: PZ-accelerated ZPI–FXa reactions: kinetics and stoichiometry of inhibition. Conditions: for SI / ka,app × SI / ka,app × SI relative to WT: PZ-accelerated; for ka,app: equimolar PZ, 25 μM phospholipid, 5 mM CaCl2, pH 7.4, 25 °C; for PZ enhancement: ratio of PZ-accelerated to unaccelerated ka,app × SI. Type of test: biochemical. The essentials:
as §1

The target in test [3] is T3, FXa. The test is described as follows: H50 heparin-accelerated ZPI–FXa reactions: kinetics and stoichiometry of inhibition. Type of test: biochemical. Conditions: for SI / ka,app × SI / ka,app × SI relative to WT: 1 μM H50; for ka,app: 1 μM H50, 2.5 mM CaCl2, pH 7.4, 25 °C; for H50 rate enhancement: ratio of heparin-accelerated to unaccelerated ka,app × SI. The essentials: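 Pseudo-first-order inhibition of ~0.5 nM FXa by ZPI (70 nM for H50 titration 10^−9–10^−4 M; 10–900 nM for ka,app) at 25 °C, pH 7.4 Tris with 2.5 mM CaCl2; residual activity by fluorogenic substrate, ka,app from kobs vs [ZPI] with kd fixed at 10^−4 s^−1. SI from residual activity vs ZPI:FXa ratio (50–100 nM FXa, ±1 μM H50), dissociation-corrected.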

Regarding “PZ: human plasma protein Z, cofactor of ZPI, from Enzyme Research Laboratories”, in the test with NBD-ZPI–PZ interactions, the Kd was 9 ± 1.2 nM. Also, the “enhancement in NBD fluorescence” value with K239C-NBD-ZPI is given as roughly 300%.

B1: D298K/E301R/T302K/T309K: ZPI mutant with the helix H heparin-binding site of PCI grafted onto homologous ZPI residues (protein, UniProt Q9UK55 22-444, looked up, variant D298K E301R T302K T309K)
Protein Z-dependent protease …: LAPSPQSPETPAPQNQTSRVVQAPKEEEEDEQEASEEKASEEEKAWLMASRQQLAKETSNFGFSLLRKISMRHDGNMVFSPFGMSLAMTGLMLGATGPTETQIKRGLHLQALKPTKPGLLPSLFKGLRETLSRNLELGLTQGSFAFIHKDFDVKETFFNLSKRYFDTECVPMNFRNASQAKRLMNHYINKETRGKIPKLFDEINPETKLILVDYILFKGKWLTPFDPVFTEVDTFHLDKYKTIKVPMMYGAGKFASTFDKNFRCHVLKLPYQGNATMLVVLMEKMGDHLALEDYLTTKLVRKWLRNMKKRNMEVFFPKFKLDQKYEMHELLRQMGIRRIFSPFADLSELSATGRNLQVSRVLQRTVIEVDERGTEAVAGILSEITAYSMPPVIKVDRPFHFMIYEETSGMLLFLGRVVNPTLL
Turning to B1, in the test with FXa [1], the SI is 3.6 ± 0.3 moles ZPI/mole FXa, the “ka,app × SI” value was 2.6 ± 0.2 × 10^4 M^−1 s^−1, the “ka,app × SI relative to WT” value is recorded as “(1.6)” and the “ka,app” value was 7.3 ± 0.1 × 10^3 M^−1 s^−1. Besides, in the test with FXa [2], the SI turned out to be 2.2 ± 0.1 moles ZPI/mole FXa, the “ka,app × SI” value was 1.8 ± 0.3 × 10^7 M^−1 s^−1, the “ka,app × SI relative to WT” value is reported as “(0.41)” and the “ka,app” value is reported as 8.4 ± 1.2 × 10^6 M^−1 s^−1. In the test with FXa [2], the PZ enhancement is reported as 692. Also, in the test with FXa [3], the SI was determined as 4.6 ± 0.1 moles ZPI/mole FXa, the “ka,app × SI” value is 3.9 ± 0.2 × 10^6 M^−1 s^−1, the “ka,app × SI relative to WT” value is given as “(3.2)” and the “ka,app” value is reported as 8.3 ± 0.4 × 10^5 M^−1 s^−1. In addition, the H50 rate enhancement in the test with FXa [3] was 150 fold.

B2: R263A: ZPI helix H site mutant (protein, UniProt Q9UK55 22-444, looked up, variant R263A)
Protein Z-dependent protease …: LAPSPQSPETPAPQNQTSRVVQAPKEEEEDEQEASEEKASEEEKAWLMASRQQLAKETSNFGFSLLRKISMRHDGNMVFSPFGMSLAMTGLMLGATGPTETQIKRGLHLQALKPTKPGLLPSLFKGLRETLSRNLELGLTQGSFAFIHKDFDVKETFFNLSKRYFDTECVPMNFRNASQAKRLMNHYINKETRGKIPKLFDEINPETKLILVDYILFKGKWLTPFDPVFTEVDTFHLDKYKTIKVPMMYGAGKFASTFDKNFACHVLKLPYQGNATMLVVLMEKMGDHLALEDYLTTDLVETWLRNMKTRNMEVFFPKFKLDQKYEMHELLRQMGIRRIFSPFADLSELSATGRNLQVSRVLQRTVIEVDERGTEAVAGILSEITAYSMPPVIKVDRPFHFMIYEETSGMLLFLGRVVNPTLL
Take B2: in the test with FXa [1], the SI is given as 2.7 ± 0.5 moles ZPI/mole FXa, the “ka,app × SI” value was 6.4 ± 1.3 × 10^3 M^−1 s^−1, the “ka,app × SI relative to WT” value is “(0.40)” and the “ka,app” value is reported as 2.4 ± 0.1 × 10^3 M^−1 s^−1. For the same molecule, in the test with FXa [2], the SI is listed as 3.1 ± 0.1 moles ZPI/mole FXa, the “ka,app × SI” value is 2.1 ± 0.2 x 10^7 M^−1 s^−1, the “ka,app × SI relative to WT” value was “(0.48)” and the “ka,app” value is on record as 6.9 ± 0.5 × 10^6 M^−1 s^−1. In addition, the PZ enhancement in the test with FXa [2] was determined as 3359. In the test with FXa [3], the SI was 2.8 ± 0.1 moles ZPI/mole FXa, the “ka,app × SI” value is given as 3.5 ± 0.4 × 10^5 M^−1 s^−1, the “ka,app × SI relative to WT” value is on record as “(0.29)” and the “ka,app” value is on record as 1.3 ± 0.1 × 10^5 M^−1 s^−1. For the same molecule, in the test with FXa [3], the H50 rate enhancement is on record as 55 fold.

B3: K253A: ZPI helix H site mutant (protein, UniProt Q9UK55 22-444, looked up, variant K253A)
Protein Z-dependent protease …: LAPSPQSPETPAPQNQTSRVVQAPKEEEEDEQEASEEKASEEEKAWLMASRQQLAKETSNFGFSLLRKISMRHDGNMVFSPFGMSLAMTGLMLGATGPTETQIKRGLHLQALKPTKPGLLPSLFKGLRETLSRNLELGLTQGSFAFIHKDFDVKETFFNLSKRYFDTECVPMNFRNASQAKRLMNHYINKETRGKIPKLFDEINPETKLILVDYILFKGKWLTPFDPVFTEVDTFHLDKYKTIKVPMMYGAGAFASTFDKNFRCHVLKLPYQGNATMLVVLMEKMGDHLALEDYLTTDLVETWLRNMKTRNMEVFFPKFKLDQKYEMHELLRQMGIRRIFSPFADLSELSATGRNLQVSRVLQRTVIEVDERGTEAVAGILSEITAYSMPPVIKVDRPFHFMIYEETSGMLLFLGRVVNPTLL
Take B3: in the test with FXa [1], the SI was determined as 2.1 ± 0.1 moles ZPI/mole FXa, the “ka,app × SI” value is given as 8.5 ± 1.2 × 10^3 M^−1 s^−1, the “ka,app × SI relative to WT” value was “(0.53)” and the “ka,app” value was 4.1 ± 0.4 × 10^3 M^−1 s^−1. In addition, in the test with FXa [2], the SI turned out to be 2.4 ± 0.1 moles ZPI/mole FXa, the “ka,app × SI” value is reported as 7.2 ± 0.1 x 10^6 M^−1 s^−1, the “ka,app × SI relative to WT” value is recorded as “(0.16)” and the “ka,app” value was 3.0 ± 0.2 × 10^6 M^−1 s^−1. Moreover, the PZ enhancement in the test with FXa [2] was found to be 847. Besides, in the test with FXa [3], the SI is reported as 1.5 ± 0.1 moles ZPI/mole FXa, the “ka,app × SI” value was 4.8 ± 0.7 × 10^5 M^−1 s^−1, the “ka,app × SI relative to WT” value is on record as “(0.40)” and the “ka,app” value is reported as 3.2 ± 0.2 × 10^5 M^−1 s^−1. The H50 rate enhancement with FXa [3] worked out at 56 fold.

Broadly, the Kd is the concentration at which binding is half-saturated.

Values taken from article PMC9190012, “Heparin activation of protein Z-dependent protease inhibitor (ZPI) allosterically blocks protein Z activation through an extended heparin-binding site” (The Journal of Biological Chemistry, 2022).
